Our source for the self-cleavage values is the RNAGym collection of RNA variant scans (doi:10.7554/elife.80360).

To fix the notation:
B1: Twister Ribozyme (parent)
chain: AACACUGCCAAUGCCGGUCCCAAGCCCGGAUAAAAGUGGAGGGGGCGG

The variants in the series derive from B1. Kind of series: self-cleavage, relative activity (ratio to wild type); higher = more cleavage; co-transcriptional.
For the variant A22U G45A, the self-cleavage was 0.678.

Turning to A23C A30G, the self-cleavage is 0.385.

For A22U C26A, the self-cleavage worked out at 0.11.

As to A22U C26U, the self-cleavage came to 0.103.

For the variant C21U A35C, the self-cleavage worked out at 0.154.

In the case of C21U A35G, the self-cleavage came to 0.108.

For C21G G24A, the self-cleavage amounted to 0.0681.

As for C21G G24U, the self-cleavage came to 0.0976.

Consider C21G G24C, for which the self-cleavage came to 0.109.

Turning to C21U C46A, the self-cleavage was found to be 0.107.

Turning to C21U C46G, the self-cleavage was found to be 0.135.

A22C G42C: the self-cleavage came to 0.237.

Turning to A22C G42A, the self-cleavage came out at 0.215.

As to C21A G38U, the self-cleavage came out at 0.0847.

As to C21A G38A, the self-cleavage worked out at 0.109.

As for C21G G38A, the self-cleavage is 0.11.

A22G A40U: the self-cleavage is 0.138.

Turning to A22G A40C, the self-cleavage turned out to be 0.11.

As to A22G A40G, the self-cleavage came to 0.588.

For the variant C20U G39U, the self-cleavage was 0.15.

C20U G39C: the self-cleavage is 0.0926.

As for C21G A30G, the self-cleavage was 0.0493.

Consider C21G A30C, for which the self-cleavage is 0.0405.

C20G U31A: the self-cleavage is 0.103.

As for C20G U31G, the self-cleavage came to 0.146.

Turning to C20G U31C, the self-cleavage came out at 0.0873.

With A23C G38C, the self-cleavage turned out to be 0.219.

For the variant A22G C27A, the self-cleavage worked out at 0.0974.

In the case of A23C C27A, the self-cleavage turned out to be 0.0984.

Consider A23C C27G, for which the self-cleavage worked out at 0.0848.

Turning to C20U A34G, the self-cleavage was determined as 0.373.

In the case of C20U A34U, the self-cleavage was found to be 0.404.

For the variant C21A G48C, the self-cleavage was 0.171.

Consider A22C G44A, for which the self-cleavage was determined as 0.914.

With A23C A34G, the self-cleavage is 0.135.

Regarding A22G G45A, the self-cleavage is 0.277.

Regarding A22G G45U, the self-cleavage was 0.143.

For the variant C21G C25U, the self-cleavage stood at 0.0625.

In the case of C21G C25G, the self-cleavage was found to be 0.0701.

On to A23C A32U, for which the self-cleavage was found to be 0.241.

A22U A30U: the self-cleavage was found to be 0.999.

Turning to A22U A30G, the self-cleavage worked out at 0.783.

On to A22U G29U, for which the self-cleavage turned out to be 0.66.

On to A23C G29C, for which the self-cleavage worked out at 0.0814.

As to A23C G29U, the self-cleavage is 0.124.

On to C21G G39U, for which the self-cleavage came to 0.0469.

Consider C21G C46A, for which the self-cleavage was determined as 0.115.

For C21G C46G, the self-cleavage was found to be 0.113.

Turning to C21U A33G, the self-cleavage came out at 0.146.

On to A22G G42U, for which the self-cleavage turned out to be 0.0653.

Consider C21U A23U, for which the self-cleavage is 0.0638.

Turning to C21U A23G, the self-cleavage is 0.0801.

For C21U A23C, the self-cleavage is 0.0826.

C21A G28A: the self-cleavage was 0.0792.

On to C21A G42C, for which the self-cleavage amounted to 0.15.

As for C21A G42U, the self-cleavage amounted to 0.0873.

As for C21A G42A, the self-cleavage stood at 0.0769.

As to C21A G41C, the self-cleavage came out at 0.457.

On to C21A G41U, for which the self-cleavage worked out at 0.678.

Regarding C21A G39C, the self-cleavage was determined as 0.116.

As to A23G C27A, the self-cleavage is 0.147.

A23G C27U: the self-cleavage stood at 0.14.

With C21A G45C, the self-cleavage was 0.109.

As to C21A G45U, the self-cleavage was 0.121.

In the case of C21A G45A, the self-cleavage is 0.114.

Turning to C21U G28U, the self-cleavage worked out at 0.102.

Turning to A22G U31A, the self-cleavage was found to be 0.196.

In the case of A22G U31C, the self-cleavage worked out at 0.304.

Take A22C U37C: the self-cleavage was 0.624.

C20U U31A: the self-cleavage was found to be 0.68.

Take C20G G44U: the self-cleavage was found to be 0.0685.

With C20G G44A, the self-cleavage is 0.18.

C21A U37A: the self-cleavage was found to be 0.105.

A22C G47A: the self-cleavage came to 0.909.

Regarding A22C G47U, the self-cleavage stood at 0.917.

Turning to A22U A33C, the self-cleavage amounted to 0.737.

On to A22U A33U, for which the self-cleavage was determined as 0.698.

With A23C C46A, the self-cleavage was determined as 0.164.

In the case of A22G G44A, the self-cleavage was determined as 0.315.

For A22G G44U, the self-cleavage came to 0.243.

For A22G G44C, the self-cleavage turned out to be 0.225.

A23G A32C: the self-cleavage amounted to 0.366.

For the variant A23G A32G, the self-cleavage was 0.402.

Take C21A U31A: the self-cleavage worked out at 0.0618.

On to C21A U31C, for which the self-cleavage was 0.153.

On to C21A U31G, for which the self-cleavage worked out at 0.119.

As to C21G U31G, the self-cleavage was 0.0712.

Regarding C21G A40U, the self-cleavage turned out to be 0.129.

As to A22C G39C, the self-cleavage stood at 0.161.

As for A22C G39U, the self-cleavage stood at 0.111.

C21G A23C: the self-cleavage is 0.0558.

In the case of C21G A23G, the self-cleavage is 0.11.

Take C21G A23U: the self-cleavage is 0.032.

As for C21G A32U, the self-cleavage was 0.196.

In the case of A22G A35G, the self-cleavage stood at 0.138.

In the case of A22C C46U, the self-cleavage is 0.832.

With A22C C46A, the self-cleavage came to 1.02.

Take A22C C46G: the self-cleavage stood at 0.869.

In the case of A22C C25G, the self-cleavage is 0.222.

As to A22C C25A, the self-cleavage is 0.12.

For the variant A22C C25U, the self-cleavage was found to be 0.948.

A22G G48C: the self-cleavage was determined as 0.318.

In the case of A22G G48A, the self-cleavage worked out at 0.246.

For the variant C21A A30U, the self-cleavage came out at 0.152.

As to C21A A30C, the self-cleavage came to 0.079.

As to C20U, the self-cleavage worked out at 1.01.

For A23C G28U, the self-cleavage turned out to be 0.161.

With C20U G48C, the self-cleavage worked out at 1.04.

C21U G39C: the self-cleavage amounted to 0.114.

In the case of C21U G39U, the self-cleavage turned out to be 0.0656.

On to A22C U31G, for which the self-cleavage turned out to be 0.987.

Turning to A22C G28U, the self-cleavage came to 0.937.

With A22C G28C, the self-cleavage was 0.955.

As to A22C G28A, the self-cleavage was 0.862.

Turning to C21U G24C, the self-cleavage came to 0.0925.

Take C21U G24U: the self-cleavage worked out at 0.106.

For C21G G43U, the self-cleavage was 0.0954.

C21G G43A: the self-cleavage was 0.0243.

Regarding C21A G29C, the self-cleavage is 0.0813.

As to C21A G29A, the self-cleavage was 0.132.

For C20U G45A, the self-cleavage was 0.838.

Take C20U G45C: the self-cleavage was 0.425.

Regarding C21U A32G, the self-cleavage was found to be 0.0636.

As to C21G A22U, the self-cleavage was 0.118.

On to C21G A22C, for which the self-cleavage was 0.0386.

For the variant C21G A22G, the self-cleavage was found to be 0.135.

Regarding C20U A32U, the self-cleavage came out at 0.887.

In the case of C20U A32G, the self-cleavage is 0.82.

With C20U A32C, the self-cleavage is 0.758.

On to A22U G44C, for which the self-cleavage turned out to be 0.836.

Consider A22U G44U, for which the self-cleavage is 0.812.

Turning to C21G U37G, the self-cleavage turned out to be 0.083.

Consider A22G A23G, for which the self-cleavage came out at 0.0844.

In the case of C20U G29A, the self-cleavage was determined as 0.81.

For the variant A22U G36U, the self-cleavage was 0.074.

With A22C A33U, the self-cleavage came to 0.983.

With A22C A33C, the self-cleavage was 0.955.

C21A C25U: the self-cleavage came to 0.0609.

As for C21A C25G, the self-cleavage came to 0.0507.

For the variant C21A C25A, the self-cleavage is 0.101.

For A22C C26A, the self-cleavage came out at 0.46.

Take C20G G45A: the self-cleavage worked out at 0.102.

On to C20G G45U, for which the self-cleavage stood at 0.0778.

For C21U G36U, the self-cleavage was 0.0467.

On to C20U G42C, for which the self-cleavage worked out at 0.654.

For C20G G48C, the self-cleavage was found to be 0.157.

As for A22C A35U, the self-cleavage is 0.962.

Take C20U A40C: the self-cleavage worked out at 0.0976.

Regarding A22C G38U, the self-cleavage came to 0.782.

Regarding A22C G38C, the self-cleavage came out at 0.976.

For the variant A22C G38A, the self-cleavage turned out to be 0.894.

As for A22U G28A, the self-cleavage is 0.485.

A22U G28U: the self-cleavage stood at 0.736.

On to C20G U37C, for which the self-cleavage was determined as 0.0961.

As for C20G U37A, the self-cleavage was determined as 0.0911.

C21U A22G: the self-cleavage was 0.0633.

As to C21U A22C, the self-cleavage amounted to 0.0923.

C21U G42C: the self-cleavage turned out to be 0.118.

Take C20U G24U: the self-cleavage was 0.0768.

As for C20U G24C, the self-cleavage is 0.0962.

With A22U A34G, the self-cleavage is 0.535.

For A22U G43C, the self-cleavage was 0.129.

As for C21A A32U, the self-cleavage was found to be 0.152.

As for C21A A32C, the self-cleavage was 0.169.

Turning to C21G G36C, the self-cleavage was 0.0148.

A22U C46U: the self-cleavage worked out at 0.773.

Consider A22C G45A, for which the self-cleavage turned out to be 0.927.
